# Assay results taken from patent US20050208041A1 (Bristol-Myers Squibb, published 2005).
# Substitutions are numbered along the chain they refer to. Names may count otherwise.
# B1: H2K6 (antibody, V domains shown)
# VH: QVTLKESGPALVKPTQTLTLTCTFSGFSLSTSGMGIGWIRQPPGKALEWLAHIWWDDDKYYNPSLKSRLTISRDTSKNQVVLTMTNMDPVDTATYYCGRNYYPYDAWFDYWGQGTLVTVS
# VL: EIVLTQSPDFQSVTPKEKVTITCSASSSINSNHLHWYQQKPGQSPKLLIYRTSILASGVPSRFSGSGSGTSFTLTINSLEAEDVATYYCQQGSNIPFTFGQGTKLEIKR
# notes: Full-length antibody with human IgG constant regions; also called heavy chain H2 with light chain K6
# B2: murine monoclonal antibody 64G12 (antibody, V domains shown)
# VH: QVTLKESGPGILKPSQTLSLTCSFSGFSLSTSGMGIGWIRQPSGKGLEWLAHIWWDDDKYYNPSLKSQLTISRDTSTNQVFLNITSVDTVDTATYYCGRNYYPYDAWFDYWGQGTLVTVS
# VL: EIVLTQSPTTMAASPGEKITITCSASSSINSNHLHWYQQKPGFSPKVLIYRTSILASGVPTRFSGSGSGTSYSLTIGTMEAEDVATYYCQQGSNIPFTFGSGTELEIKR
# notes: Mouse IgG1, kappa light chain; also called 64G12 (mouse IgG1); murine anti-IFNAR-1 mAb 64G12
# B3: mouse-human chimeric antibody with 64G12 variable regions and human IgG4 kappa constant regions (antibody, V domains shown)
# VH: B2 VH
# VL: B2 VL
# notes: also called Chimeric IgG4; human IgG4 chimeric antibody
# B4: H3K1 (IgG1) (antibody, V domains shown)
# VH: EVQLVESGGGLVQPGGSLRLSCAFSGFTLSTSGMGIGWVRQAPGKGLEWVAHIWWDDDKYYNPSLKSRFTISRDTSKNTVYLQMNSLRAEDTAVYYCARNYYPYDAWFDYWGQGTLVTVS
# VL: DIQMTQSPSSLSASVGDRVTITCSASSSINSNHLHWYQQKPGKAPKLLIYRTSILASGVPSRFSGSGSGTSFTLTISSLQPEDFATYYCQQGSNIPFTFGQGTKVEIKR
# B5: H2K1 (antibody, V domains shown)
# VH: B1 VH
# VL: B4 VL
# notes: Full-length antibody with human IgG constant regions; also called heavy chain H2 with light chain K1
# B6: DI M3-B K1C (h IgG1) (antibody, V domains shown)
# VH: B4 VH with V5L, F24A, L29M, V39I, A42T, S67A, V80L
# VL: B4 VL with S27T
# B7: H3K6 (antibody, V domains shown)
# VH: B4 VH
# VL: B1 VL
# notes: Full-length antibody with human IgG constant regions; also called heavy chain H3 with light chain K6
# B8: DI M3-B heavy chain with K1-C light chain (Example 3) (antibody, V domains shown)
# VH: B4 VH with V5L, F24A, L29M, V39I, A42T, S67A, V80L
# VL: B4 VL with S27T
# notes: also called DIM3-B K1-C; DI M3-B K1-C
# B9: M3-B heavy chain with K1-C light chain (antibody, V domains shown)
# VH: B4 VH with V5L, S67A
# VL: B4 VL with S27T
# notes: also called M3-B K1-C
# How the values were obtained:
# [1] = biological target: T1, purified recombinant IFNAR-1 extracellular fragment (human, UniProt P17181 28-436); assay: Biacore, IFNAR-1 extracellular fragment coupled to CM5 chip, antibody 1.75-80 nM
# T1 construct: extracellular domain; also called soluble IFNAR-1; soluble IFNAR
# T1 sequence (looked up): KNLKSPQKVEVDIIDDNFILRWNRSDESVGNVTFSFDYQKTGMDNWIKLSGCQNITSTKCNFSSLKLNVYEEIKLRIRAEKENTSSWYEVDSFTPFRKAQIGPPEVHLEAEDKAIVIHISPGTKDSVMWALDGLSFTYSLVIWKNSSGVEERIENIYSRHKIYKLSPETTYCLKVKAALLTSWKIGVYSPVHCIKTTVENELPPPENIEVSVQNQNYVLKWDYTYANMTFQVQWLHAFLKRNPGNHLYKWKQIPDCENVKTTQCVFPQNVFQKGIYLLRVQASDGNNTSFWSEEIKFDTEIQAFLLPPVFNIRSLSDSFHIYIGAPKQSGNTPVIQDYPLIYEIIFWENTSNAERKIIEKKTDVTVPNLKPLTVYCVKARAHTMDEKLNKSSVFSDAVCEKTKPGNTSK
# Experimental: Antibodies from clones 64G12, H2K6, H2K1, H3K6, and H3K1 were assayed by Biacore analysis (Biacore AB, Uppsala, Sweden) to determine binding kinetics. Purified recombinant IFNAR-1 extracellular fragment was coupled to the CM5 sensor chip @ 600 RU. Binding was measured by adding antibody at concentrations from 1.75-80 nM at a flow rate of 20 ul/min. The binding curves were fit to a Langmuir binding model using BIAevaluation software (Biacore AB, Uppsala, Sweden).
# IFNAR-1 on human cells [2] = biological target: T2, IFNAR-1 on human cells (human, UniProt P17181 28-557); assay: cell-based or functional assay
# T2 sequence (looked up): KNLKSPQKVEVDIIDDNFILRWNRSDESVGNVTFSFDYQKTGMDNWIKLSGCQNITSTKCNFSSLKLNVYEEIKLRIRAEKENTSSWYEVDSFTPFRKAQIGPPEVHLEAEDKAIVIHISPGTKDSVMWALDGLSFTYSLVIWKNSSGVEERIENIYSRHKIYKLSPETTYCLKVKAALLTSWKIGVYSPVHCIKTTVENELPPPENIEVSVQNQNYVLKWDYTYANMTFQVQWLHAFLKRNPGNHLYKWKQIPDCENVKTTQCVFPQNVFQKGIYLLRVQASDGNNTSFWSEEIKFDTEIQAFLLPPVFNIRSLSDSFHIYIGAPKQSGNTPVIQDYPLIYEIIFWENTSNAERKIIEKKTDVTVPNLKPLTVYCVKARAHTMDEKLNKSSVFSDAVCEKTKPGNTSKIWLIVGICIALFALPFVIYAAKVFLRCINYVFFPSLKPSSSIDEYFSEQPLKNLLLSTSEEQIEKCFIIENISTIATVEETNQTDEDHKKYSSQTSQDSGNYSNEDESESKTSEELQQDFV
# IFNAR-1 on human cells [3] = biological target: T2, IFNAR-1 on human cells; assay: Scatchard analysis, 125I-labelled antibody on BALL-1 cells
# Experimental: BALL-1 cells, which express IFNAR-1 and IFNAR-2, were used to assess the binding of anti-IFNAR-1 humanized antibodies to cells by Scatchard analysis. The cells were grown in RPMI containing 10% FCS and washed twice with Hanks Balanced Salt Solution (HBSS) at 4 degrees C. […] Millipore plates (MAFB NOB) were coated with 1% nonfat dry milk in water and stored a 4° C. overnight. The plates were washed with binding buffer and 25 ul of unlabeled antibody (1000-fold excess) in TBS binding buffer was added to control wells in a Millipore 96 well glass fiber filter plate (non-specific binding NSB). Twenty-five microliters of buffer alone was added to the maximum binding control well (total binding). Twenty-five microliters of ¹²⁵I-anti-IFNAR-1 antibody and 25 ul of BALL-I cell suspension (4×10⁷ cells/ml) in TBS binding buffer were added. The plates were incubated for 2 hours at 200 RPM on a shaker at 4° C. At the completion of the incubation the Millipore plates were washed twice with 0.2 ml of cold TBS binding buffer containing a final concentration of 0.5 M NaCl. The filters were removed and counted in a gamma counter. Evaluation of equilibrium binding was performed using single site binding parameters with the Prism software (San Diego, Calif.).
# Therefore in either a protein-based or cell-based assay, the binding affinity of the antibodies are in the low nM range.
# [4] = biological target: T1, purified recombinant IFNAR-1 …; assay: Receptor Binding (Biacore), purified recombinant receptor; Biacore, purified recombinant receptor (not BALL-1 cells)
# IFNAR-1 on human cells [5] = biological target: T2, IFNAR-1 on human cells; assay: cell-based or functional assay; remark: listed apart in the source
# [6] = biological target: T1, purified recombinant IFNAR-1 …; assay: Biacore, antibody captured on anti-human IgG Fc, soluble IFNAR 25-400 nM, flow cell 2-1 low density capture
# [7] = biological target: T1, purified recombinant IFNAR-1 …; assay: Biacore, antibody on immobilized soluble IFNAR-1, maximal response, mean of four
# Experimental: Additional combination variants heavy chain DI M3-B and light chain DI K1-C were also made. These combination variants were also tested for binding to IFNAR-1. […] Binding analysis was done by Biacore, with the antibody bound to immobilized soluble IFNAR-1. Maximal response was determined at two concentrations and values shown are mean of four determinations.
# [8] = biological target: T1, purified recombinant IFNAR-1 …; assay: Biacore, antibody captured on anti-human IgG Fc, soluble IFNAR 25-400 nM, flow cell 4-3 higher density capture
binder,measurement,setting,value
B1,Kd,[1],1.3 nM
B2,"Cell Proliferation (Daudi) IC50, cells cultured with interferon α2b",IFNAR-1 on human cells [2],2.1 nM
same,"ISRE-RG Reporter (U937) IC50, interferon α2b",IFNAR-1 on human cells [2],5.8 nM
same,Kd,IFNAR-1 on human cells [3],3.9 nM
same,Kd,[4],1.2 nM
same,"fold decrease in ISRE-RG reporter assay with IFNβ, potency against H3K1 (IgG1)",IFNAR-1 on human cells [5],3 fold
same,Kd,[1],1.2 nM
B3,Kd,[1],3.6 nM
B4,"Cell Proliferation (Daudi) IC50, cells cultured with interferon α2b",IFNAR-1 on human cells [2],3.9 nM
same,"ISRE-RG Reporter (U937) IC50, interferon α2b",IFNAR-1 on human cells [2],2.7 nM
same,"ISRE-RG reporter assay with IFNβ, potency against H3K1 (IgG4)",IFNAR-1 on human cells [5],~10 fold
B5,Kd,[1],0.8 nM
B6,"Cell Proliferation (Daudi) IC50, cells cultured with interferon α2b",IFNAR-1 on human cells [2],10 nM
same,"ISRE-RG Reporter (U937) IC50, interferon α2b",IFNAR-1 on human cells [2],4.6 nM
B7,Kd,[1],1.8 nM
B8,Kd,[6],0.502 nM
same,koff,[6],2.82e-06 s⁻¹
same,kon,[6],5610 M⁻¹ s⁻¹
same,% response relative to H3K1,[7],100%
same,Kd,[8],3.53 nM
same,koff,[8],1.64e-05 s⁻¹
same,kon,[8],4640 M⁻¹ s⁻¹
B9,Kd,[6],7.47 nM
same,koff,[6],4.1e-05 s⁻¹
same,kon,[6],5490 M⁻¹ s⁻¹
same,% response relative to H3K1,[7],156%
same,Kd,[8],7.45 nM
same,koff,[8],4.06e-05 s⁻¹
same,kon,[8],5460 M⁻¹ s⁻¹
